{"source": "patent US20220267421A1", "about": "(INVOX PHARMA, published 2022)", "binders": {"B1": {"name": "G1-AA/FS28-024 (antibody, human IgG1, kappa, L234A L235A, V domains shown)", "VH": "EVQLLESGGGLVQPGGSLRLSCAASGFTLSYSSMSWVRQAPGKGLEWVSFITPSTGYTHYADSVKGRFTISRDNSKNTLYLQMNSLRAEDTAVYYCARRALTFDYWGQGTLVTVSS", "VL": "EIVLTQSPGTLSLSPGERATLSCRASQSVSSSYLAWYQQKPGQAPRLLIYGASSRATGIPDRFSGSGSGTDFTLTISRLEPEDFAVYYCQQASSYPLTFGQGTKVEIKR", "notes": "Complete human IgG1 with LALA mutation; also called FS28-024 mAb (in G1-AA format)"}, "B2": {"name": "G1-AA/FS28-026 (antibody, human IgG1, kappa, L234A L235A, V domains shown)", "VH": "EVQLLESGGGLVQPGGSLRLSCAASGFTFSNYAMTWVRQAPGKGLEWVSSITPYYSKTDYADSVKGRFTISRDNSKNTLYLQMNSLRAEDTAVYYCARNWYRFDYWGQGTLVTVSS", "VL": "not shown", "notes": "IgG1 LALA; also called FS28-026 mAb (in G1-AA format)"}, "B3": {"name": "G1-AA/FS28-091 (antibody, human IgG1, kappa, L234A L235A, V domains shown)", "VH": "B2 VH with S30T, T35S, T52K, Y55D, S56G, K57N, D59Y, W100R, Y101W, R102V", "VL": "not shown", "notes": "IgG1 LALA; also called FS28-091 mAb (in G1-AA format)"}}, "note": "Changes are numbered by the printed parent chain.", "data": [{"target": "T1, cell surface human mesothelin (MSLN) (human, UniProt Q13421 296-598)", "T1 construct": "whole, on cells; also called cell surface MSLN", "T1 sequence (Q13421 other isoform, or with tags, fused parts or gaps limits assumed)": "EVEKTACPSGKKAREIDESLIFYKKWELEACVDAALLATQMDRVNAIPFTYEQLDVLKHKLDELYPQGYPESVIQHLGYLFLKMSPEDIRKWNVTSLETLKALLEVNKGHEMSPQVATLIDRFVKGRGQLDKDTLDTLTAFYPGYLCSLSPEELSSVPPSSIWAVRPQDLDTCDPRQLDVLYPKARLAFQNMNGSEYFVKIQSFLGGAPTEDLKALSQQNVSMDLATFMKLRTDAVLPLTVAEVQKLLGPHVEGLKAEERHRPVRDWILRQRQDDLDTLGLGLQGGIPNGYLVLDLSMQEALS", "assay": "flow cytometry, NCI-H226 cells (n = 3)", "method": "(§1) Briefly, NCI-H226 cells (ATCC CRL-5826) were harvested from T175 cell culture flasks using StemPro Accutase (Gibco, A11105-01). Cells were centrifuged at 1200 rpm for 3 min and resuspended in ice cold FACS buffer made up of DPBS (Life Technologies, 14190169) and 1% BSA (Sigma-Aldrich, A7906) at 2×10⁶ cells/ml and 50 μl per well was seeded in a 96-well V-bottom plate (Costar, 3894). All mAbs tested were diluted in FACS buffer in 120 μl at a concentration range of 0.01-200 nM (4-fold dilutions). The NCI-H226 cells were then centrifuged, supernatant removed and cells resuspended in 100 μl of each mAb dilution and incubated at 4° C. for 45 min. Cells were washed twice by centrifugation with 150 μl FACS buffer, resuspended in 100 μl containing goat anti-human IgG (γ-chain specific) F(ab′)2 fragment-R-Phycoerythrin antibody (Sigma, P8047) diluted 1:1000 in FACS buffer and incubated at 4° C. for 45 min. The cells were washed once with 150 μl FACS buffer and then with 150 μl DPBS, resuspended in 150 μl DPBS containing DAPI (Biotium, 40043) at 1:10.000 and read on the BDCantoll or iQue (Intellicyt). Data was analysed using FlowJo v10 to determine the signal geometric mean for PE for live cells in each well.", "units": {"EC50": "nM", "Emax (MFI signal)": "MFI"}, "values": [{"binder": "B1", "EC50": 0.62, "Emax (MFI signal)": 14600}, {"binder": "B2", "EC50": 1.08, "Emax (MFI signal)": 13600}, {"binder": "B3", "EC50": 1.22, "Emax (MFI signal)": 11900}]}, {"target": "T2, human MSLN-His-Avi (human, UniProt Q13421 296-598, single biotin (BirA) in the biotinylated form)", "T2 construct": "Monomeric, made in HEK293-6E; Used both immobilised and in solution; also called hMSLN-His-Avi; biotinylated hMSLN-His-Avi", "T2 sequence (Q13421 other isoform, or with tags, fused parts or gaps)": "as the sequence (Q13421 other isoform, or with tags, fused parts or gaps limits assumed) above", "assay": "SPR (Biacore), hMSLN-His-Avi immobilised at 100 RU, mAb injected", "method": "(§2) Human MSLN-His-Avi was immobilised on flow cell 2 on a CM5 Series S BIAcore sensor chip (GE Healthcare, BR100530) using an amine coupling kit (GE Healthcare, BR10050) to approximately 200 response units (RU). Flow cell 1 was left blank for subtraction. HEK293-6E supernatants or purified proteins were adjusted with HBS-EP+(GE Healthcare) to approximately 50 nM anti-MSLN mAb per sample. Samples were injected over flow cell 1 and 2 for 2.5 min at 30 μl/min and then allowed to dissociate in HBS-EP buffer for 2.5 min. Regeneration was achieved by injecting 10 mM glycine pH 1.5 (GE Healthcare, BR100354) for 30 seconds at a rate of 30 μl/min. Subtracted data (flow cell 2−flow cell 1) were analysed using BIAevaluation 3.2 Software (GE Healthcare).\n(§3) For each bin described in 2.1.3, the binding kinetics were determined using the same method as described in section 2.1.2, except that human or cyno MSLN-His-Avi was immobilised at 50 or 100 RU. Clones were tested at a concentration range of 81 nM to 0.33 nM in 3-fold dilutions.", "units": {"Kd": "nM"}, "values": [{"binder": "B1", "Kd": 0.23}, {"binder": "B2", "Kd": 0.12}, {"binder": "B3", "Kd": 0.76}]}, {"target": "T2, human MSLN-His-Avi", "assay": "ELISA, hMSLN-His-Avi coated at 1 ug/ml", "units": {"EC50": "nM"}, "values": [{"binder": "B1", "EC50": "~0.5", "maximum binding signal": 3}, {"binder": "B2", "EC50": "~0.5", "maximum binding signal": 3}, {"binder": "B3", "EC50": "~0.5", "maximum binding signal": 3}]}, {"target": "T1, cell surface human mesothelin (MSLN)", "assay": "flow cytometry on NCI-H226 cells (endogenous cell surface MSLN), detection with anti-human IgG-PE, geometric mean MFI", "method": "as §1", "units": {"EC50 (read off the curve)": "nM"}, "values": [{"binder": "B1", "EC50 (read off the curve)": "~1"}, {"binder": "B2", "EC50 (read off the curve)": "~1"}, {"binder": "B3", "EC50 (read off the curve)": "~1"}]}, {"target": "T2, human MSLN-His-Avi", "assay": "competition ELISA: mAb pre-mixed with biotinylated hMSLN-His-Avi, binding to coated MUC16 (competitor)", "method": "Plates were washed 3 times with 1× PBS and blocked with 300 μl PBS containing 2% Tween20 and 2% Marvel Milk. A concentration of anti-MSLN mAbs (0.23 nM to 500 nM, 3-fold dilutions) were pre-mixed with biotinylated hMSLN-His-Avi antigen (final concentration 2 μg/ml) in a volume of 100 μl for 1 hr at room temperature. After removal of the blocking solution, the mAb/MSLN mixture was added to the plates and incubated for 1 hr at room temperature. Plates were washed 3 times with PBST (1× PBS and 0.05% Tween20) and incubated with streptavidin-HRP (Thermo Scientific, 21126, 1:1000 dilution in 1× PBS) for 1 hr at room temperature. Finally, plates were washed 3 times with PBST and 3 times with PBS. […] Absorbances were read at 450-630 nm (Gen5 software, BioTek).", "units": {"IC50": "nM"}, "values": [{"binder": "B1", "IC50": 2.9}, {"binder": "B2", "IC50": 5.2}, {"binder": "B3", "IC50": 4.4}]}, {"target": "T2, human MSLN-His-Avi", "assay": "SPR (Biacore), hMSLN-His-Avi immobilised at 50 RU, mAb injected", "method": "as §2, §3", "units": {"Kd": "nM"}, "values": [{"binder": "B1", "Kd": 0.77}, {"binder": "B2", "Kd": 0.21}, {"binder": "B3", "Kd": 1.24}]}]}
